Source: paper PMC2585067

Molecular target: EYFP, free protein expressed in HeLa cells (Aequoria victoria)
Experiment: FRET or BRET

cross-bleed corrected FRET normalized to fluorescence of donor: 6.2%
Substance: ECFP, free protein expressed in HeLa cells
